How the values were obtained:
Assay in all cases: co-sedimentation
[1] = molecular target: dFull heavy chain (expressed full-length murine myosin V) (murine)
[2] = molecular target: dHMM heavy chain (dilute heavy meromyosin: six IQ motifs followed by a coiled-coil tail) (murine) (UniProt Q99104)
[3] = molecular target: MD2IQ heavy chain (murine myosin V motor domain and the first two IQ motifs) (murine) (UniProt Q99104)

## wild-type calmodulin (WT-CaM) (from UniProt P0DP33 1-149) (natural protein)
[1]
  mol CaM dissociated per mol HC in calcium (mol CaM per mol HC): 1.7
[2]
  mol CaM dissociated per mol HC in calcium (mol CaM per mol HC): 1.5
[3]
  mol CaM dissociated per mol HC in calcium (mol CaM per mol HC): 0.5
